According to patent US20190352359A1 (IMMATICS BIOTECHNOLOGIES, published 2019):

B1: MANEAL-004 (peptide)
peptide: VYSDLHAFY
notes: also called VYSDLHAFY
B2: LAMA3-002 (peptide)
peptide: GYFGNPQKF
notes: also called GYFGNPQKF
B3: CHRNA6-002 (peptide)
peptide: IYTDITYSF
notes: also called IYTDITYSF
B4: AGTR2-002 (peptide)
peptide: RYQSVIYPF
notes: also called RYQSVIYPF
B5: IFNLR-001 (peptide)
peptide: VYLTWLPGL
notes: also called VYLTWLPGL
B6: CHRNA6-001 (peptide)
peptide: FYIRRLPMF
notes: also called FYIRRLPMF
B7: TRPM8-009 (peptide)
peptide: KFLTHDVLTELF
notes: also called KFLTHDVLTELF
B8: NPSR-001 (peptide)
peptide: MYGIVIRTI
notes: also called MYGIVIRTI
B9: PNLD-001 (peptide)
peptide: NFYLFPTTF
notes: also called NFYLFPTTF
B10: SLC45A3-004 (peptide)
peptide: IYFATQVVF
notes: also called IYFATQVVF
B11: MYO3B-005 (peptide)
peptide: RYADLLIYTY
notes: also called RYADLLIYTY
B12: COL24-002 (peptide)
peptide: SWHKATFLF
notes: also called SWHKATFLF
B13: TDRD9-002 (peptide)
peptide: IYMTTGVLL
notes: also called IYMTTGVLL
B14: SLC45A3-006 (peptide)
peptide: VYLASVAAF
notes: also called VYLASVAAF
B15: CCR4-004 (peptide)
peptide: YYAADQWVF
notes: also called YYAADQWVF
B16: LOXL4-003 (peptide)
peptide: AWSPPATLFLF
notes: also called AWSPPATLFLF
B17: TNR-003 (peptide)
peptide: VYAVISNIL
notes: also called VYAVISNIL
B18: PDE11-002 (peptide)
peptide: LYHNWRHAF
notes: also called LYHNWRHAF
B19: MYO10-003 (peptide)
peptide: VYNNNSSRF
notes: also called VYNNNSSRF
B20: CLEC4C-001 (peptide)
peptide: EYQQYHPSL
notes: also called EYQQYHPSL
B21: RTL-003 (peptide)
peptide: EYIDEFQSL
notes: also called EYIDEFQSL
B22: SLC16A14-001 (peptide)
peptide: GYFGTASLF
notes: also called GYFGTASLF
B23: ITIH6-003 (peptide)
peptide: RYAHTLVTSVLF
notes: also called RYAHTLVTSVLF
B24: DNAH17-003 (peptide)
peptide: SYLWTDNLQEF
notes: also called SYLWTDNLQEF
B25: HEPHL-004 (peptide)
peptide: RYFDENIQKF
notes: also called RYFDENIQKF
B26: ADCY8-001 (peptide)
peptide: RYENVSILF
notes: also called RYENVSILF
B27: SLC44A5-003 (peptide)
peptide: QYIPTFHVY
notes: also called QYIPTFHVY
B28: FLT3-010 (peptide)
peptide: FYKLIQNGF
notes: also called FYKLIQNGF
B29: AKAP13-005 (peptide)
peptide: KLPTEWNVL
notes: also called KLPTEWNVL
B30: TENM4-007 (peptide)
peptide: AYFVAMHLF
notes: also called AYFVAMHLF
B31: TSPE-001 (peptide)
peptide: VYKWTEEKF
notes: also called VYKWTEEKF
B32: MAGEB1-001 (peptide)
peptide: KYKDHFTEI
notes: also called KYKDHFTEI
B33: FCRL5-004 (peptide)
peptide: FYHEDMPLW
notes: also called FYHEDMPLW
B34: SPER-001 (peptide)
peptide: PYFSPSASF
notes: also called PYFSPSASF
B35: MSX-001 (peptide)
peptide: QYLSIAERAEF
notes: also called QYLSIAERAEF
B36: POT-002 (peptide)
peptide: LQPQPQLFFSF
notes: also called LQPQPQLFFSF
B37: PNLD-002 (peptide)
peptide: QYGFNYNKF
notes: also called QYGFNYNKF
B38: RTL-004 (peptide)
peptide: VYCSLDKSQF
notes: also called VYCSLDKSQF
B39: MROH2A-003 (peptide)
peptide: RYLEEHTEF
notes: also called RYLEEHTEF
B40: TEX15-001 (peptide)
peptide: TYIDFVPYI
notes: also called TYIDFVPYI
B41: SCGB2A1-001 (peptide)
peptide: VYDSIWCNM
notes: also called VYDSIWCNM
B42: CYP27C-001 (peptide)
peptide: IYANVTEMLL
notes: also called IYANVTEMLL
B43: DPY19L1-003 (peptide)
peptide: HWSHITHLF
notes: also called HWSHITHLF
B44: AR-002 (peptide)
peptide: YQSRDYYNF
notes: also called YQSRDYYNF
B45: LOC1001246-002 (peptide)
peptide: NYMDTDNLMF
notes: also called NYMDTDNLMF
B46: FSTL4-002 (peptide)
peptide: LYITKVTTI
notes: also called LYITKVTTI
B47: ESR1-008 (peptide)
peptide: NYPEGAAYEF
notes: also called NYPEGAAYEF
B48: DMXL1-001 (peptide)
peptide: KYVGEVFNI
notes: also called KYVGEVFNI
B49: MROH2A-004 (peptide)
peptide: SYPKELMKF
notes: also called SYPKELMKF

target: T1, HLA-A*24; assay: UV peptide-exchange ELISA (anti-b2m); yield grade ++++ = >75%
T1 construct: Monomers captured on streptavidin plates; also called peptide-receptive MHC molecules; MHC complexes
Text: Candidate peptides for T cell based therapies according to the present invention were further tested for their MHC binding capacity (affinity). The individual peptide-MHC complexes were produced by UV-ligand exchange, where a UV-sensitive peptide is cleaved upon UV-irradiation, and exchanged with the peptide of interest as analyzed. Only peptide candidates that can effectively bind and stabilize the peptide-receptive MHC molecules prevent dissociation of the MHC complexes. To determine the yield of the exchange reaction, an ELISA was performed based on the detection of the light chain (p2m) of stabilized MHC complexes. The assay was performed as generally described in Rodenko et al. (Rodenko et al., 2006)
96 well MAXISorp plates (NUNC) were coated over night with 2 ug/ml streptavidin in PBS at room temperature, washed 4× and blocked for 1 h at 37° C. in 2% BSA containing blocking buffer. Refolded HLA-A*02:01/MLA-001 monomers served as standards, covering the range of 15-500 ng/ml. Peptide-MHC monomers of the UV-exchange reaction were diluted 100-fold in blocking buffer. Samples were incubated for 1 h at 37° C., washed four times, incubated with 2 ug/ml HRP conjugated anti-β2m for 1h at 37° C., washed again and detected with TMB solution that is stopped with […]. Absorption was measured at 450 nm. Candidate peptides that show a high exchange yield (preferably higher than 50%, most preferred higher than 75%) are generally preferred for a generation and production of antibodies or fragments thereof, and/or T cell receptors or fragments thereof, as they show sufficient avidity to the MHC molecules and prevent dissociation of the MHC complexes.

Peptide exchange yield, > 75%:
B1
B2
B3
B4
B5
B6
B7
B8
B9
B10
B11
B12
B13
B14
B15
B16
B17
B18
B19
B20
B21
B22
B23
B24
B25
B26
B27
B28
B29
B30
B31
B32
B33
B34
B35
B36
B37
B38
B39
B40
B41
B42
B43
B44
B45
B46
B47
B48
B49
